Results from paper PMC5676521.

Substrate: C[S+](CC[C@H](N)C(=O)[O-])C[C@H]1O[C@@H](n2cnc3c(N)ncnc32)[C@H](O)[C@@H]1O
Assay: purified protein
Details: varied: cofactor

B1: PRMT7 (TbPRMT7) (Trypanosoma brucei brucei TREU927) (protein)
chain: MPPKQHRHQKKDKNDNALQNTIGFVPPGATLASVSGYRPPDAFVNRIDRNIPVPARLRHTPVSLIEAVNDFHYAMMNDEERNNFYYEVLKKHVTPETGVLEIGAGSGLLSLMAAKLGAKWVVAVEGSEELAKLARENIRANNMEHQVKVLHMMSTELKSKHLPEPPDVLLSEIFGTMMLGESALDYVVDVRNRLLKPTTKIIPQFGTQYAVPIECDALHRISSVSGWRDLDLKHMMTLQDTVSIVFAKHYGIRMNSVNFRRLSDPIELFRVDFSSSNRNDIPRRKHFDVVAKESGTAHAMLFYWKVTDDEFVMSTDPEDTVNNFPRDMQWGQALQLLDASNGPLPTPVVFTEGKNYNFECNFSGDRVILHMQLCPESGNGEMTECEGKTT
  Km: 1.1 ± 0.2 µM
  kcat: 22.3 ± 0.6 h^–1
